Reference: paper PMC3585134

How the values were obtained:
[1] = target: AIP56^1–285 (N-terminal domain of AIP56, apoptosis-inducing protein of 56 kDa) (Photobacterium damselae piscicida); experiment: reducing and non-reducing SDS-PAGE; purified AIP56^1–285 and AIP56^286–497, each alone, run with and without DTT (Figure S5A); dimers held by a disulphide formed on oxidation
[2] = target: AIP56^1–285 (N-terminal domain of AIP56, apoptosis-inducing protein of 56 kDa) (Photobacterium damselae piscicida); experiment: reducing and non-reducing SDS-PAGE; reconstituted AIP56: AIP56^1–285 and AIP56^286–497 mixed in equimolar amounts in 8 M urea, 1 mM DTT, refolded by extensive dialysis against sbPBS; run with and without DTT (Figure S6A)
[3] = target: AIP56^286–497 (C-terminal domain of AIP56, apoptosis-inducing protein of 56 kDa) (Photobacterium damselae piscicida); experiment: reducing and non-reducing SDS-PAGE; purified AIP56^1–285 and AIP56^286–497, each alone, run with and without DTT (Figure S5A); dimers held by a disulphide formed on oxidation
[4] = target: AIP56^286–497 (C-terminal domain of AIP56, apoptosis-inducing protein of 56 kDa) (Photobacterium damselae piscicida); experiment: reducing and non-reducing SDS-PAGE; reconstituted AIP56: AIP56^1–285 and AIP56^286–497 mixed in equimolar amounts in 8 M urea, 1 mM DTT, refolded by extensive dialysis against sbPBS; run with and without DTT (Figure S6A)

Substance	stoichiometry N [1]	stoichiometry N [2]	stoichiometry N [3]	stoichiometry N [4]
AIP56^1–285 (N-terminal domain of AIP56, apoptosis-inducing protein of 56 kDa) (domain or fragment)	2	2	–	–
AIP56^286–497 (C-terminal domain of AIP56, apoptosis-inducing protein of 56 kDa) (domain or fragment)	–	–	2	2
